Reference: the DeepSol protein solubility set

Test: soluble on expression in E. coli; label from the status in PepcDB or PDB records

**Q.** Which “soluble on expression in E. coli” value does the source give for “MGSDKIHHHHHHMRLRHIEIFHAIYTTGSITNAAKILHVSQPSVSKVLSHAEMQLGFDLFERVKGRLTPTDEAEMLFDEVDKIYQQMRSIKNTAENIKKSEYGQINIAGSPALGFDVIPSAIAKYHHKHHQVNFNVQTVHNDAVMQTLLEHKCDLAILFAPNVMPGVTSIELAQSELVIVYPKVSFPDCPKELTLNQLKEFEYIDIGDSGPLADLLWTRMMKDNISLEALIKVQTYFIAARLVAQGVGICVVDRFTAEGNLSDNTAIASFNPPLTFPVKALYLENKSLSKVSQEFLSYLTTEFSDDSK” here?
**A.** not soluble

**Q.** For “MGSDKIHHHHHHMTDCADAQGLIAKITGVCFNHQLNIIKNSEFVDNAQGRFFMRTELEGHFHCEQLLQDLRQVLPAQNHMTLVSAGKKRIVILVTKEAHCLGDLLMKAYYGGLNVEIAAVVGNHDVLRELVEKFDIPFHLVSHEGLDRIQHEQALLAAVSQYSPDYLVLAKYMRVLTPDFVAEYPNRILNIHHSFLPAFIGAAPYRQAWERGVKIIGATAHFVNNCLDEGPIIKQDVIPVDHSYSALEMAKAGRDVEKSVLSKALQLVLNEQVVVYGNKTIVF”, which “soluble on expression in E. coli” value is on record?
**A.** not soluble

**Q.** With “MAMAALKDLVEFQLKNAQELVTVLEAEKVAITSRISVDIESIAKQKLTLVNQLQQTDQRIAKHPHVASLTEDTYLNELVSQIRSIIMDCQQANLINGDALARAQLSFNKLNNLMQQSHGKIGMTYSATGKTHTISTLGTNIKA” as the sequence, how does the “soluble on expression in E. coli” value read?
**A.** not soluble

**Q.** For “GSMTQIHQINDIDVHRITSGQVITDLTTAVKELVDNSIDANANQIEIIFKDYGLESIECSDNGDGIDPSNYEFLALKHYTSKIAKFQDVAKVQTLGFRGEALSSLCGIAKLSVITTTSPPKADKLEYDMVGHITSKTTTSRNKGTTVLVSQLFHNLPVRQKEFSKTFKRQFTKCLTVIQGYAIINAAIKFSVWNITPKGKKNLILSTMRNSSMRKNISSVFGAGGMRGLEEVDLVLDLNPFKNRMLGKYTDDPDFLDLDYKIRVKGYISQNSFGCGRNSKDRQFIYVNKRPVEYSTLLKCCNEVYKTFNNVQFPAVFLNLELPMSLIDVNVTPDKRVILLHNERAVIDIFKTTLSDYYNRQELALPK”, which “soluble on expression in E. coli” value is on record?
**A.** soluble

**Q.** Which “soluble on expression in E. coli” value does the source give for “MSSKEIICQGEELFRLIPQRPPMVMIDRFYGIEENTSWSGLTVTTDNLFCRDGVLQETGIIEHIAQSAAARVGYIYMLRKEPVPLGFIGSVEKMKLFRLPSAGAELYTGITIVQEVFDITLITAEVKENDELLAECRMKIYLKKELEHHHHHH” here?
**A.** soluble

**Q.** With “YLLGHSLGELTCLSVNSLFSLKDLFDIANFRNKLMVTSTEKYLVAHNINRSNKFEMWALSSPRATDLPQEVQKLLNSPNLLSSSQNTISVANANSVKQCVVTGLVDDLESLRTELNLRFPRLRITELTNPYNIPFHNSTVLRPVQEPLYDYIWDILKKNGTHTLMELNHPIIANLDGNISYYIHHALDRFVKCSSRTVQFTMCYDTINSGTPVEIDKSICFGPGNVIYNLIRRNCPQVDTIEYTS” as the sequence, how does the “soluble on expression in E. coli” value read?
**A.** soluble

**Q.** With “MNSLRPELLELTPQALTALSNAGFVKRSLKELENGNVPEISHENSALIATFSDGVRTQLANGQALKEAQCTYGASGMCRHRVMLVLSYQRLCATAQPTGKEEEWDPAIWLEELATLPDATRKRAQALVAKSITIELFCAPGEIPSARLPMSDVRFYSRSSIRFARCDCIEGTLCEHVVLAVQAFVQAKAQQAELTHLIWQMRSEHVTSSDDPFASEEGKTCRQYVQQLSQALWLSGISQPLIHYEAAFSRAQQAAERCSWRWVSESLRQLRASVDAFHARASHYHAGECLRQLAALNSRLNCAQEMARSDSVGEVPPVPWRTVVGSGIAGEAKLDHLRLVSLGMRCWQDIEHYGLRIWFTDPDTGSILHLSRSWPRSEQEDSPAATRRLFSFQAGALAGGQIVSQAAKRSADGELLLATRNRLSSVVPLSPDAWQMLSAPLRQPGIVALREYLRQRPPACIRPLNQVDNLFILPVAECISLGWDSSRQTLDAQVISGEGEDNLLTLSLPASASAPYAIERMAALLQQTDDPVCLVSGFVSFVDGQLTLEPQVMMTKTRAWALDAETAPVVVSLPSASVLPVPSTAHQLLMRCQALLIQLLHNGWRYQEQSAINQAELLANDLTAVGFYRLAHVLAQFRNTESEARVEAMNNGVLLCEQLFPMLQQQG” as the sequence, how does the “soluble on expression in E. coli” value read?
**A.** not soluble

**Q.** For “MLRSTSDRFRWSSLSLAIACTLPLATQAADTTTTQTSSKKHSTDTMVVTATGNERSSFEAPMMVTVIEGNAPTSQTAATAADMLRQVPGLTVTGSGRTNGQDVVMRGYGKQGVLTLVDGVRQGTDTGHLNSTFLDPALVKRIEIVRGPAALLYGSGALGGVIAYETVDAADMLQPGQNSGYRVYSSAATGDHSFGLGASAFGRTDDLDGILSFGTRDIGNIRQSNGFNAPNDETISNVLAKGTWQIDSIQSLSANLRYYNNSAIEPKNPQTSAPSSTNVMTNRSTIQRDAQLRYNIKPLDQEWLNATAQVYYSEVEINARPQGSAEEGREQTTEGVKLENRTRLFIESPASHLLTYGTETYKQEQTPGGATESFPQAKIRFSSGWLQDEITLRDLPVSILAGTRYDNYSGSSDGYADVDADKWSSRGAISITPTDWLMLFGSYAQAFRAPTMGEMYNDSKHFAIPIRPGLTLTNYWVPNPNLKPETNETQEYGFGLRFSDLLMAEDDLQFKVSYFDTKAKDYISTRVDMQAMTTTSVNIDQAKIWGWDASMSYKTALFNWDLAYNRTRGKNQNTDEWLDTINPDTVTSIVDVPVANSGFSVGWIGTFANRSSRVSSSTPQAGYGVNDFYVSYKGQEAFKGMTTTMLLGNVFEKEYYTPQGIPQDGRNVKFFVSYQW”, which “soluble on expression in E. coli” value is on record?
**A.** not soluble

**Q.** Which “soluble on expression in E. coli” value does the source give for “MATLDKFLSIKENDEKTKKKESKKKSSKSNKTSESLVSHDHFELTPEFENQLWKVADKLRKKMEVHQYKYVVLGLIFLRALTCRFYERRKEIEEELSNPNSELYTEDPELRKMILEDEDFYLSEGVLYLPKETRWDYFVENVMSPNIGEIIDTAIEILEEKYPDRLKDVIPKIYAQSPLDNHDYSYLINKFSEISFGKEHRVKDVFGRIYEYFLGKFTEVEGKLGGKFYTPRSLTKLIVDVLDVKGGSIFDPACGSGGFFVSALEKLEREGIDINELSIYGQDSDPMAYRLTKMNLIIRGAEGDIRIDDSYHDDKFMDMTFDYVVANPPFNDSEWDANRIKPDDPRLRIGNKKVPVPPNGNANYMWILHFIYHTAPNGKAGFVMANGALSAGNVEGEIRKAIIENDLVYGIVACPPKLFYNVSLPVSLWFIRKEKPDYMKGKVLFINAKNLYKQISRRQNILTEEHIKKIVDKFRMFESGEDEDKINELGFAKVATIDEIAKNGYVLTPGRYVGVKIEDDGIPFEVKMKEYSEELKKLLDEEEKLRNKVKEILDALGF” here?
**A.** soluble

**Q.** Which “soluble on expression in E. coli” value does the source give for “MKEFIISEARTEPTVLVGLITPQQSETQVREYLDELAFLCETAGAQPIARFTQKLDQPNSVTFVGKGKLDEIRAYVQENEIGMVVFDDELSPKQLRNIEKELQTKILDRTGLILDIFARRAQTAHAKTQVELAQYQYMLPRLTGLWTHLERQRGGVGMRGPGEKQLETDRRIVLDKIARLKEELRDIDKQKSVQRKNRGKMVRVALVGYTNVGKSTLMNVLSKSEVFAENKLFATLDTTVRKVIIDNLPFLLSDTVGFIRKLPTQLVESFKSTLDEVREADLLVHVVDMSHPAFEEQIEVVNQTLAEITAGEEKPMLLLFNKIDAFSFTPKDEDDLTPRTKENISAEELQQTWMAKLGNDCLFVSAKKGTGMDALKALLYERAKAIHITRFPYNDFLFQDYSEEME” here?
**A.** not soluble

**Q.** With “MAHHHHHHMSRFPEARKQSVQVTRHCGIASQLVTEVNGRNLTHLSVLEQEMLASSNVTEHSRQMMDVVQDPKTDIDDALRMVMLYALRYEKVGGNNTAQLKEMLLKRNCPMERISLIDRLLEYGGADKRLHELFRTSTGHILKIVAKTVGQFGKDIQNVLTQHVPLMKKVINRVYNGTLSEQKYPVQEVVGSPISVSAVPTIRAKDIIIVMVGGVTYSEAMLLYQINQGQVSNNVESLMNLGKNVTRLVSGDSTAKSASGEPYTEKIEARVTLLSTSMIDSKDFIHSLPS” as the sequence, how does the “soluble on expression in E. coli” value read?
**A.** not soluble

**Q.** With “MGSDKIHHHHHHMKKHLNTLFVTTQGAYLSKEGETVVVKVDREVRLRVPVHTLGGIVCFGNIGCSPYLMGFCAEKSVCISFLSERGRFLARVQGPVSGNVLLRREQYRRADDPEFSAIMARYVLTGKIANCRTVLQRALRDHQEKINADSVRQAVDHLGRCLTSLGREKSLDNLRGIEGDAAHRYFSVFNELILMQKDAFIFDERNRRPPLDPMNCLLSFAYTLLVHDIRSALEAVGLDPAVGYLHRDRPGRPGLALDIMEEFRPFIVDRLVLSLVNLRKVQAKGFKKSESGAVQMDDDTRRTLLVSYQERKQEEMLHPFLGERTTFGLLFHVQAMLLARYLRGDLDGYPPFIYR” as the sequence, how does the “soluble on expression in E. coli” value read?
**A.** not soluble
